The supplement of paper PMC9112550, “Optimization of the antimicrobial peptide Bac7 by deep mutational scanning” (BMC Biology, 2022)

Tested on: Escherichia coli TOP10
Experiment: shrunken log2 fold change of peptide-encoding DNA abundance (4.5 h post-induction vs induction); higher = less antimicrobial activity (less host growth inhibition)
Details: time post-induction: 4.5 h; library: site-saturation at positions 5, 18, 19, 20
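Further: peptides expressed intracellularly from a pBAD plasmid library in pooled LB shake-flask culture, induced with 0.3% L-arabinose, DNA abundance read by NGS, three biological replicates, DESeq2 with apeglm shrinkage.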

Sequence	shrunken log2 fold change
RRIRCRPPRLPRPRPRPWKTPRP	-0.152
RRIRQRPPRLPRPRPRPSSWPRP	-0.0176
RRIRLRPPRLPRPRPRPYLKPRP	-0.396
RRIRFRPPRLPRPRPRPAGIPRP	-0.161
RRIRGRPPRLPRPRPRPNCPPRP	-0.161
RRIRARPPRLPRPRPRPFARPRP	-0.0584
RRIRERPPRLPRPRPRPLTQPRP	-0.281
RRIRVRPPRLPRPRPRPCSLPRP	-0.201
RRIRFRPPRLPRPRPRPNIRPRP	-0.184
RRIRRRPPRLPRPRPRPWGAPRP	0.483
RRIRMRPPRLPRPRPRPSDKPRP	0.0839
RRIRPRPPRLPRPRPRPCTWPRP	0.025
RRIRRRPPRLPRPRPRPWQYPRP	0.0419
RRIRDRPPRLPRPRPRPDIYPRP	0.0286
RRIRARPPRLPRPRPRPHRVPRP	-0.13
RRIRRRPPRLPRPRPRPTLHPRP	0.534
RRIRNRPPRLPRPRPRPFRAPRP	-0.00309
RRIRSRPPRLPRPRPRPRFVPRP	0.129
RRIRQRPPRLPRPRPRPKMYPRP	-0.544
RRIRQRPPRLPRPRPRPIFNPRP	-0.365

Sequence	shrunken log2 fold change
RRIRIRPPRLPRPRPRPRKEPRP	0.00489
RRIRYRPPRLPRPRPRPNNVPRP	-0.323
RRIRDRPPRLPRPRPRPISSPRP	0.00884
RRIRVRPPRLPRPRPRPVHNPRP	-0.404
RRIRMRPPRLPRPRPRPCQIPRP	-0.0194
RRIRDRPPRLPRPRPRPRSTPRP	-0.00371
RRIRVRPPRLPRPRPRPITDPRP	-0.069
RRIRGRPPRLPRPRPRPGGCPRP	1.19
RRIRMRPPRLPRPRPRPYEQPRP	-0.222
RRIRIRPPRLPRPRPRPPVKPRP	-0.156
RRIRDRPPRLPRPRPRPMIHPRP	0.318
RRIRMRPPRLPRPRPRPETAPRP	4.06
RRIRHRPPRLPRPRPRPLMTPRP	-0.192
RRIRERPPRLPRPRPRPDMLPRP	-0.166
RRIRLRPPRLPRPRPRPGWWPRP	0.155
RRIRPRPPRLPRPRPRPQIMPRP	-0.265
RRIRIRPPRLPRPRPRPILVPRP	0.0273
RRIRMRPPRLPRPRPRPNTFPRP	0.105
RRIRMRPPRLPRPRPRPNYDPRP	-0.149
RRIRDRPPRLPRPRPRPCECPRP	-0.201

Sequence	shrunken log2 fold change
RRIRDRPPRLPRPRPRPKYTPRP	-0.214
RRIRDRPPRLPRPRPRPDRDPRP	-0.0722
RRIRMRPPRLPRPRPRPWGYPRP	0.101
RRIRVRPPRLPRPRPRPHWSPRP	-0.191
RRIRWRPPRLPRPRPRPPMSPRP	0.095
RRIRNRPPRLPRPRPRPHICPRP	-0.0994
RRIRGRPPRLPRPRPRPYPGPRP	-0.0165
RRIRSRPPRLPRPRPRPALAPRP	0.419
RRIRPRPPRLPRPRPRPPLCPRP	0.281
RRIRRRPPRLPRPRPRPALIPRP	1.05
RRIRSRPPRLPRPRPRPMHDPRP	-0.314
RRIRLRPPRLPRPRPRPLKEPRP	0.00325
RRIRCRPPRLPRPRPRPPGSPRP	0.379
RRIRDRPPRLPRPRPRPYHMPRP	-0.00968
RRIRYRPPRLPRPRPRPPRGPRP	0.284
RRIRHRPPRLPRPRPRPRVNPRP	0.106
RRIRRRPPRLPRPRPRPHWKPRP	-0.00963
RRIRMRPPRLPRPRPRPKERPRP	0.0219
RRIRCRPPRLPRPRPRPTVQPRP	0.0608
RRIRGRPPRLPRPRPRPFNAPRP	-0.132
